The values that follow come from patent US20090304577A1.

No end group written: not given here.

Assay [1] addresses monoclonal anti-TCR Vβ antibody. Nature of the assay: ELISA OD with α-TCR Vβ on plate coated with CDR-L3 homodimer, against control (culture medium/PBS). (In general: ELISA stands for enzyme-linked immunosorbent assay.)
Assay [2] has the same target. Nature of the assay: ELISA; plate coated with CDR-L3 homodimer, tested against α-TCR Vβ; mean ± SD of three observations.
The target is the same in assay [3]. Nature of the assay: ELISA OD with α-TCR Vβ on plate coated with CDR-H2 homodimer, against control (culture medium/PBS).
The target is the same in assay [4]. The assay can be described thus: ELISA; plate coated with CDR-H2 homodimer, tested against α-TCR Vβ; mean ± SD of three observations.
Assay [5] shares this target. The assay can be described thus: ELISA; plate coated with CDR-H3 homodimer, tested against α-TCR Vβ; mean ± SD of three observations.
Assay [6] has the same target. Nature of the assay: ELISA OD with α-TCR Vβ on plate coated with CDR-H3 homodimer, against control (culture medium/PBS).

Turning to CQQYNSYPLT (also: homodimer, linkage not given here) [CDR-L3 homodimer peptide (SEQ ID NO:16 with an added N terminal cysteine, dimerised)], the Ratio Test/Control in assay [1] was 1.74. Moreover, in assay [2], the optical density turned out to be 0.243 OD.
For the molecule CNIYPSDSYTNYNQKFKD (also: homodimer, linkage not given here) [CDR-H2 homodimer peptide (SEQ ID NO:8 with an added N terminal cysteine, dimerised)], in assay [3], the Ratio Test/Control worked out at 1.83. The molecule also had an optical density in assay [4] of 0.307 OD.
For the molecule CLRGLLPDY (also: homodimer, linkage not given here) [CDR-H3 homodimer peptide (SEQ ID NO:10 with an added N terminal cysteine, dimerised)], the optical density in assay [5] was determined as 0.182 OD. In assay [6], the Ratio Test/Control worked out at 2.
